Publication PMC3540817, “Transfer of a Redox-Signal through the Cytosol by Redox-Dependent Microcompartmentation of Glycolytic Enzymes at Mitochondria and Actin Cytoskeleton” (Frontiers in Plant Science, 2012)

B1: recombinant cytosolic fructose 1,6-bisphosphate aldolase (FBA6, At2g36460) (enzyme, A. thaliana, UniProt Q9SJQ9 1-358, looked up)
chain: MSSFTSKFADELIANAAYIGTPGKGILAADESTGTIGKRLASINVENVESNRRALRELLFTTPGALPCLSGVILFEETLYQKSSDGTPFVDMLKSAGVLPGIKVDKGTVELAGTNGETTTQGLDGLGDRCKKYYEAGARFAKWRAVLKIGVNEPSQLAIHENAYGLARYAVICQENGLVPIVEPEILVDGSHDIQKCAAVTERVLAACYKALSDHHVLLEGTLLKPNMVTPGSESAKVAPEVIAEHTVRALQRTVPAAVPAIVFLSGGQSEEEATRNLNAMNQLKTKKPWSLSFSFGRALQQSTLKTWGGKEENVKKAQEAFLVRCKANSEATLGAYKGDAKLGEGAAESLHVKDYKY
notes: cytosolic fructose 1,6-bisphosphate aldolase FBA6, A. thaliana, At2g36460; Redox reagents were added to the mixtures; no modified residues are named; the redox state is told by the assay; source: recombinant, purified
B2: VDAC3 (At5g15090) reconstituted into liposomes (natural protein, A. thaliana, UniProt Q9SMX3 1-274, looked up)
chain: MVKGPGLYTEIGKKARDLLYRDYQGDQKFSVTTYSSTGVAITTTGTNKGSLFLGDVATQVKNNNFTADVKVSTDSSLLTTLTFDEPAPGLKVIVQAKLPDHKSGKAEVQYFHDYAGISTSVGFTATPIVNFSGVVGTNGLSLGTDVAYNTESGNFKHFNAGFNFTKDDLTASLILNDKGEKLNASYYQIVSPSTVVGAEISHNFTTKENAITVGTQHALDPLTTVKARVNNAGVANALIQHEWRPKSFFTVSGEVDSKAIDKSAKVGIALALKP
notes: voltage-dependent anion channel VDAC3, A. thaliana, At5g15090; also called VDAC3 in liposomes; porin; source: cell-free system (RTS 100 Wheat Germ CECF), separated from the reaction mix via reconstitution into liposomes

Legend:
[1] = target: the molecule itself; assay: far-Western, overlay or dot blot; 2 μg of each protein spotted on nitrocellulose, overlaid with 100 μg/ml aldolase with 0.1 mM GSNO, 5 mM GSSG, 1 mM diamide + 1 mM GSH or 0.5 mM H2O2 + 0.5 mM GSH, 1 h room temperature; glutaraldehyde cross-linking; anti-aldolase antibody
[2] = target: T1, recombinant GAPDH GapC1 (At3g04120) (A. thaliana, UniProt P25858 1-338); assay: far-Western, overlay or dot blot; GapC and BSA spotted on nitrocellulose, overlaid with VDAC3 in liposomes, without DTT (oxidized GapC); anti-VDAC1 serum, ECL; conditions: both partners purified
T1 construct: cytosolic NAD-dependent glyceraldehyde-3-phosphate dehydrogenase GapC1, A. thaliana, At3g04120; Redox reagents (diamide + GSH, GSSG, GSNO, H2O2 + GSH, DTT) were added to the mixtures; the redox state is told by the assay; source: recombinant, purified
T1 sequence (P25858 whole entry): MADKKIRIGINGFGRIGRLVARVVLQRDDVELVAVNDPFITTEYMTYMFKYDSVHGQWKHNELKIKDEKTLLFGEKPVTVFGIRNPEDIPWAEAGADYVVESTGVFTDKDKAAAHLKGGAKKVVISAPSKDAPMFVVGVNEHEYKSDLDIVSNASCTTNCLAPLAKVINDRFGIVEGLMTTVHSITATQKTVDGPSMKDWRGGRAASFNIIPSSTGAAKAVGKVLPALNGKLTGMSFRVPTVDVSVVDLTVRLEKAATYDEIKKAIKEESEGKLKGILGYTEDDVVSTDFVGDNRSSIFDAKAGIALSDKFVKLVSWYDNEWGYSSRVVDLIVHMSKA

Binder	binding result [1]	binding result [2]
B1	binds	
B2		binds
